Laboratory results from the supplement of paper PMC10126150.
± gives the standard deviation of the averaged measurements.

test system: ATP; test: switch fluorescence ratio, 500 uM ATP over buffer (Cy3 cluster intensity, sum of 5 cycles each) (fold (ratio)); higher = stronger signal-on switching upon ATP binding; sequences stand for … in TCGTCGGCAGCGTCAGATGTGTATAAGAGACAGTTTTTTTTTTTTTTTTTTTTTTTTT…TC; details: aptamer strand: ATP DNA aptamer (quencher-CACCTGGGGGAGTATTGCGGAGGAAGG + anchor), 100 nM annealed; ATP concentration: 500 uM
Method in brief: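 For every switch-domain sequence, the fluorescence ratio is the mean of per-cluster values, each being summed target-cycle Cy3 intensity over summed buffer-cycle Cy3 intensity. Clusters outside 100-1000 RFU were excluded. On a modified Illumina MiSeq flow-cell, the Cy3-labelled switching-strand clusters were annealed to 100 nM quencher-labelled ATP aptamer, imaged in selection buffer and then after 15 min with 500 uM ATP at 22 °C. Five such cycles were run, with NaOH stripping and re-annealing between them.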
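Further: ATP exposure 15 min at 22 °C before imaging.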

Sequence	switch fluorescence ratio
ATCGCGGTGC	1.64 ± 0.33
ATCGCTATGG	1.125 ± 0.0017
ATCGCTGGTA	1.02 ± 0.031
ATCGGAAAGC	1.07 ± 0.028
ATCGGAATTG	1.01 ± 0.015
ATCGGAGACA	0.9681 ± 0.0067
ATCGGAGGCA	1.0107 ± 0.00084
ATCGGCAGGC	1.22 ± 0.075
ATCGGCGGGG	0.995 ± 0.031
ATCGGGACGA	0.955 ± 0.0099
ATCGGGCGGG	1.02 ± 0.02
ATCGGGCTGC	1 ± 0.038
ATCGGGGAGG	1.01 ± 0.0081
ATCGGGGCAT	0.98 ± 0.059
ATCGGGGGAA	1.05 ± 0.062
ATCGGGTAAG	1.01 ± 0.024
ATCGGGTCCA	0.979 ± 0.028
ATCGGTGGGA	0.992 ± 0.0031
ATCGGTGTTG	1.02 ± 0.035
ATCGGTTTTG	1.01 ± 0.021
ATCGTACATA	1.12 ± 0.064
ATCGTATTAC	1.46 ± 0.041
ATCGTCCCTT	0.986 ± 0.022
ATCGTCGGGA	0.977 ± 0.02
ATCGTGCCGT	1.01 ± 0.041

Sequence	switch fluorescence ratio
ATCGTGGGTG	0.984 ± 0.015
ATCGTGTGAG	1.02 ± 0.015
ATCTAAAGTT	1.023 ± 0.0016
ATCTAACCGA	1.06 ± 0.026
ATCTAGGGTT	0.995 ± 0.022
ATCTATGGTT	0.9669 ± 0.0036
ATCTCAGTGT	0.971 ± 0.04
ATCTCGGTTG	1.019 ± 0.0085
ATCTCTCATA	1.01 ± 0.038
ATCTCTGAAG	0.995 ± 0.013
ATCTGGACTA	0.984 ± 0.033
ATCTGGATGG	0.996 ± 0.03
ATCTGGGGTA	0.972 ± 0.034
ATCTGTATCC	1.05 ± 0.04
ATCTGTGGTT	0.978 ± 0.023
ATCTTAGTTT	1 ± 0.025
ATCTTCAGGT	0.995 ± 0.0013
ATCTTCTAAG	1.02 ± 0.03
ATCTTCTTAG	0.977 ± 0.051
ATCTTTAAGT	0.993 ± 0.015
ATCTTTGGTG	1.03 ± 0.022
ATCTTTGTGT	1.01 ± 0.043
ATGAAAAGGG	1 ± 0.022
ATGAAAAGGT	0.976 ± 0.013
ATGAAAATCA	1.01 ± 0.019

Sequence	switch fluorescence ratio
ATGAAAATCC	1.03 ± 0.021
ATGAAAGGTT	0.975 ± 0.021
ATGAAATAGG	0.98 ± 0.031
ATGAAGAGCG	0.994 ± 0.015
ATGAAGAGGG	0.997 ± 0.045
ATGAAGTAAT	1 ± 0.023
ATGAAGTGAA	1 ± 0.034
ATGAATAAGG	0.983 ± 0.028
ATGAATATGC	1.04 ± 0.043
ATGAATGGGG	1.01 ± 0.072
ATGAATTGGT	1.01 ± 0.019
ATGAGACGTG	1.04 ± 0.037
ATGAGCATCT	0.996 ± 0.01
ATGAGGACCC	0.982 ± 0.022
ATGAGGAGGT	0.979 ± 0.0036
ATGAGGGGCT	0.986 ± 0.037
ATGAGGGGTT	0.995 ± 0.032
ATGAGGGTAG	1.02 ± 0.034
ATGAGGGTTC	0.981 ± 0.044
ATGAGGTGCG	0.972 ± 0.035
ATGAGGTGCT	1.02 ± 0.032
ATGAGGTTAG	0.947 ± 0.065
ATGAGTATTT	0.979 ± 0.046
ATGAGTGCCA	0.9844 ± 0.0013
ATGAGTTGGG	0.999 ± 0.024

Sequence	switch fluorescence ratio
ATGAGTTGTA	1.01 ± 0.012
ATGAGTTGTG	1 ± 0.017
ATGATAAGTA	1.006 ± 0.0034
ATGATAGTAA	1.009 ± 0.0027
ATGATAGTCG	0.993 ± 0.013
ATGATATGGG	0.985 ± 0.026
ATGATCAGGG	1.009 ± 0.01
ATGATCTCGT	0.968 ± 0.032
ATGATGAATG	0.975 ± 0.054
ATGATGGAAG	0.982 ± 0.015
ATGATGGACG	1.03 ± 0.062
ATGATGGCAA	1.03 ± 0.027
ATGATGGCTT	1.006 ± 0.0027
ATGATGGGCC	1 ± 0.041
ATGATGGGGC	0.9536 ± 0.0011
ATGATGTGGG	1.011 ± 0.0087
ATGATTACGA	1.03 ± 0.026
ATGATTATGA	1.04 ± 0.029
ATGATTTATT	1 ± 0.011
ATGATTTCTA	0.986 ± 0.024
ATGCAAGGCA	1.02 ± 0.04
ATGCAATCTT	1.11 ± 0.06
ATGCACTGGA	0.9969 ± 0.0075
ATGCAGACGA	1.1 ± 0.013
ATGCAGGAGT	0.98647 ± 0.00087

Sequence	switch fluorescence ratio
ATGCAGTATG	0.967 ± 0.025
ATGCATAGGC	0.983 ± 0.011
ATGCATGGAC	1.11 ± 0.12
ATGCATGGTA	1.03 ± 0.009
ATGCATTATG	1.02 ± 0.016
ATGCCAAAAG	1.01 ± 0.042
ATGCCAGGGA	1.01 ± 0.023
ATGCCAGGGT	0.998 ± 0.031
ATGCCCGGGC	0.988 ± 0.017
ATGCCGGTGT	0.996 ± 0.057
ATGCCTGGGC	1.03 ± 0.057
ATGCGAAACC	1.02 ± 0.051
ATGCGACGCT	1.091 ± 0.0038
ATGCGCGGTA	1.01 ± 0.068
ATGCGGGGGG	1.01 ± 0.021
ATGCGGGGTT	1.02 ± 0.05
ATGCGGGTG	1.04 ± 0.061
ATGCGTGACA	1.02 ± 0.036
ATGCTACCGT	1.03 ± 0.049
ATGCTACCTT	1.1 ± 0.048
ATGCTATTGT	1.03 ± 0.046
ATGCTCGCGG	0.983 ± 0.038
ATGCTGCGGG	1.06 ± 0.068
ATGCTGGGAC	1.01 ± 0.024
ATGCTGGGGG	0.994 ± 0.013

Sequence	switch fluorescence ratio
ATGCTGTTGC	0.9631 ± 0.0065
ATGGAAAATT	1.04 ± 0.02
ATGGAAGGGT	0.988 ± 0.052
ATGGAAGTTA	1.011 ± 0.0057
ATGGAATGGG	0.959 ± 0.01
ATGGAATTTG	0.98 ± 0.0098
ATGGACTATC	1.03 ± 0.046
ATGGACTGAA	0.992 ± 0.013
ATGGAGACGG	0.979 ± 0.019
ATGGAGCTAC	4.67 ± 1.3
ATGGAGGTTG	1.03 ± 0.022
ATGGAGTAAC	0.987 ± 0.011
ATGGATGCCT	1.01 ± 0.051
ATGGATGGGC	1.04 ± 0.057
ATGGCAGTGT	0.993 ± 0.018
ATGGCGAGGT	1.01 ± 0.059
ATGGCGATTG	0.996 ± 0.0078
ATGGCGTAGT	0.975 ± 0.036
ATGGCGTCCA	0.977 ± 0.045
ATGGCTGGGG	1 ± 0.019
ATGGCTGTCA	1.012 ± 0.0012
ATGGCTTGTC	1.03 ± 0.038
ATGGGAAAAA	1.01 ± 0.014
ATGGGAACCT	1.12 ± 0.18
ATGGGAAGTC	0.992 ± 0.024

Sequence	switch fluorescence ratio
ATGGGACAGC	0.975 ± 0.033
ATGGGAGAAG	0.95776 ± 0.00073
ATGGGAGTAG	0.9562 ± 0.0062
ATGGGATCTG	0.999 ± 0.025
ATGGGCAGAT	0.994 ± 0.071
ATGGGCATGG	1.04 ± 0.072
ATGGGCATTA	1 ± 0.017
ATGGGCCCGT	1.01 ± 0.1
ATGGGCGTAC	1.03 ± 0.054
ATGGGCGTAT	1.04 ± 0.017
ATGGGCTAGC	1.009 ± 0.0014
ATGGGCTCTT	1.04 ± 0.049
ATGGGGAATT	0.995 ± 0.035
ATGGGGAGAG	1.02 ± 0.028
ATGGGGAGGC	1.05 ± 0.051
ATGGGGATGG	0.978 ± 0.033
ATGGGGCACG	0.987 ± 0.037
ATGGGGGACT	1.02 ± 0.051
ATGGGGGCCT	1.02 ± 0.048
ATGGGGGGAC	0.987 ± 0.027
ATGGGGGGAG	0.997 ± 0.025
ATGGGGGGG	1.01 ± 0.014
ATGGGGGGGA	1.02 ± 0.027
ATGGGGGTGT	1.004 ± 0.0059
ATGGGGTAAC	0.969 ± 0.011

Sequence	switch fluorescence ratio
ATGGGGTCGG	1 ± 0.035
ATGGGGTGGT	0.993 ± 0.025
ATGGGGTT	0.992 ± 0.0053
ATGGGGTTCG	0.993 ± 0.035
ATGGGTACTG	0.963 ± 0.022
ATGGGTAGGG	0.967 ± 0.017
ATGGGTAGTG	0.984 ± 0.02
ATGGGTCCTG	0.979 ± 0.048
ATGGGTTACG	1 ± 0.033
ATGGGTTGAG	1.01 ± 0.0072
ATGGGTTTCT	0.989 ± 0.026
ATGGTAACGG	0.965 ± 0.042
ATGGTAATTT	0.977 ± 0.017
ATGGTAGCGC	1 ± 0.039
ATGGTAGTAT	0.986 ± 0.016
ATGGTAGTGC	0.986 ± 0.016
ATGGTATAGG	1.01 ± 0.032
ATGGTATATA	0.982 ± 0.025
ATGGTATGAA	0.979 ± 0.035
ATGGTCGCGC	0.993 ± 0.04
ATGGTCGGGG	0.995 ± 0.042
ATGGTCTTAT	0.997 ± 0.014
ATGGTGAGCG	0.978 ± 0.017
ATGGTGATAG	0.992 ± 0.011
ATGGTGGATT	0.965 ± 0.025
